Data taken from patent US20120213771A1 (published 2012).

T1: recombinant human CD27/TNFRSF7/Fc chimera (R&D Systems Catalog No. 382-CD) (UniProt P26842 20-191)
T1 chain: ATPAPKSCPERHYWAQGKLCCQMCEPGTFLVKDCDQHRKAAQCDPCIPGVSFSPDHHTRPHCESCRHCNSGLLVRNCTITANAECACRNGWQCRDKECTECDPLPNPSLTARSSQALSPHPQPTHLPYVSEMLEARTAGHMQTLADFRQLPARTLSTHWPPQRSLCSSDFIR


Tests used:
[1] = molecular target: T1, recombinant human CD27/TNFRSF7/Fc …; test: Biacore SPR
[2] = molecular target: T1, recombinant human CD27/TNFRSF7/Fc …; test: Biacore SPR

Kd [1] [pM]	Ka [2] [M⁻¹]	Binder
402	2.55e+09	1G5-1B9 (antibody, V domains shown) VH: QVQLVESGGGVVQPGRSLRLSCAASGFSFSSYGMHWVRQAPGKGLEWVALLWYDGSHKDFADSVKGRFTISRDNSKNTLDLQMNSLRAEDTAVYYCAREGLAVPGHWYFDLWGRGTLVTVSS VL: AIQLTQSPSSLSASVGDRVTITCRASQGISSALAWYQQKPGKAPKLLIYDASSLESGVPSRFSGSGSGTDFTLTISSLQPEDFATYYCQQFNTYPRTFGQGTKVEIK
55.6	1.81e+10	3H8-1B11 (antibody, V domains shown) VH: EVQLVESGGGLVQPGGSLRLSCAASGFTFSSYWMAWVRQAPGKGLEWLGNIKQDGSEKYYVDSVKGRFTISRDNAKNSLYLQMNSLRAEDTAVYYCVRELGMDWYFDLWGRGTLVTVSS VL: EIVLTQSPATLSLSPGERATLSCRASQSVDSYLAWYQQKPGQAPRLLIYDASNRATGIPARFSGSGSGTDFTLTISNLEPEDFAVYYCQQRSNWPPTFGQGTKVEIK
84.1	1.2e+10	2C2-1A10 (antibody, V domains shown) VH: QVQLVESGGGVVQPGRSLRLSCAASGFTFSSYDIHWVRQAPGKGLEWVAVIWNDGSNKYYADSVKGRFTISRDNSTNSLFLQMNSLRAEDTAVYYCVGGTADLEHWDQGTLVTVSS VL: DIQMTQSPSSLSASVGDRVTITCRASQGISSWLAWYQQKPEKAPKSLIYAASSLQSGVPSRFSGSGSGTDFTLTISSLQPEDFATYYCQQYNSYPLTFGGGTKVEIK
186	5.37e+09	1F5-1H5 (antibody, V domains shown) VH: QVQLVESGGGVVQPGRSLRLSCAASGFTFSSYDMHWVRQAPGKGLEWVAVIWYDGSNKYYADSVKGRFTISRDNSKNTLYLQMNSLRAEDTAVYYCARGSGNWGFFDYWGQGTLVTVSS VL: DIQMTQSPSSLSASVGDRVTITCRASQGISRWLAWYQQKPEKAPKSLIYAASSLQSGVPSRFSGSGSGTDFTLTISSLQPEDFATYYCQQYNTYPRTFGQGTKVEIK
158	6.39e+09	1H8-B4 (antibody, V domains shown) VH: QVQLVESGGGVVQPGRSLRLSCAASGFTFNIYDMHWVRQAPGKGLEWVAVIWYDGSNQYYADSVKGRFTISRDNSKNTLYLQMNILRAEDTAVYYCARGTHWGYFDYWGQGTLVTVSS VL: DIQMTQSPSSLSASVGDRVTITCRASQGISSWLAWYQQKPEKAPKSLIYAASNLQSGVPSRFSGSGSGTDFTLTISSLQPEDFATYYCQQYNSYPRTFGQGTKVEIK
202	4.97e+09	3A10-G10 (antibody, V domains shown) VH: QVQLVESGGGVVQPGRSLRLSCAASGFTFSHYGMHWVRQAPGKGPEWVAIIWYDGSNKYYADSVKGRFTISRDNSKNTLDLQMNSLRAEDTAVYYCARDGWTTMVRGLNVFDIWGQGTMVTVSS VL: DIQMTQSPSSLSASVGDRVTITCRASQDISSWLAWYQQKPEKAPKSLIYAASSLQSGVPSRFSGSGSGTDFTLTISSLQPEDFATYYCQQYNSYPPTFGQGTRLEIK
358	2.8e+09	3H12-1E12 (antibody, V domains shown) VH: QVQLVESGGGVVQPGRSLRLSCATSGFTFSSYDMHWVRQAPGKGLEWVAVIWYDGSNKYYADSVKGRFTISRDNSKNTLYLQMNSLGDEDTAVYYCARGSGNWGFFDYWGQGTLVTVSS VL: DIQMTQSPSSLSASVGDRVTITCRASQGISRWLAWYQQKPEKAPKSLIYAASSLQSGVPSRFSGSGSGTDFTLTISSLQPEDFATYYCQQYNTYPRTFGQGTKVEIK
1.53	6.6e+11	2G9-1D11 (antibody, V domains shown) VH: QVQLVESGGGVVQPGRSLRLSCAASGFTLSSHDIHWVRQAPGKGLEWVAVIWNDGSNKYYADSVKGRFTISRDNSTNSLFLQMNSLRAEDTAVYYCVRGTADLEHWDQGTLVTVSS VL: DIQMTQSPSSLSASVGDRVTITCRASQGISSWLAWYQQKPEKAPKSLIYAASSLQSGVPSRFSGSGSGTDFTLTISSLQPEDFATYYCQQYNSYPLTFGGGTKVEIK
